{"source": "paper PMC3288267", "origin": "cited, not measured here", "key": {"[1]": {"biological_target": "transferrin receptor 1 (TfR), immobilised on SPR chip (UniProt P02786)", "sequence (P02786 whole entry)": "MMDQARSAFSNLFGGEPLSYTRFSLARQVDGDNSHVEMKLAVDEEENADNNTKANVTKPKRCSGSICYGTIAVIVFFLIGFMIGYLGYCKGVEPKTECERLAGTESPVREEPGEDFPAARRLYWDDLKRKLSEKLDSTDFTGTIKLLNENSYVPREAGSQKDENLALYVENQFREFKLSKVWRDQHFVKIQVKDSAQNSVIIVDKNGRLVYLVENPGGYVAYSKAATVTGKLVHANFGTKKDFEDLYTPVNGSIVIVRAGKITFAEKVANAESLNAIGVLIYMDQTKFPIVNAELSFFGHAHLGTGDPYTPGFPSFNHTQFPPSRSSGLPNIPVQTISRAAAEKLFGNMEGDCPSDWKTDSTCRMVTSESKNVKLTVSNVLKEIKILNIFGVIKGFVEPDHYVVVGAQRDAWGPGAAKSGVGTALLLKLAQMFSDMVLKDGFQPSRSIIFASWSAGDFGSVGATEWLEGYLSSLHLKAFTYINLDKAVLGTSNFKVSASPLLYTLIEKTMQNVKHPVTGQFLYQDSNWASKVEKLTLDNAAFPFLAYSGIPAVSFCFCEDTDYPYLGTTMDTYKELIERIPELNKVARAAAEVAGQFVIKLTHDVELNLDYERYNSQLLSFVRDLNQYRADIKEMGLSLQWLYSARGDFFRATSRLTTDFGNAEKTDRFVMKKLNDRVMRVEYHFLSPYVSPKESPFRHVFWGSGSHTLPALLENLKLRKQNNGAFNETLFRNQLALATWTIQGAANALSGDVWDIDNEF", "assay": "Surface plasmon resonance, kinetic", "settings": "pH endosomal pH (numeric value not given)"}, "[2]": {"biological_target": "transferrin receptor 1 (TfR), immobilised on SPR chip (UniProt P02786)", "assay": "Surface plasmon resonance, equilibrium binding", "settings": "pH endosomal pH (numeric value not given)"}}, "data": [{"substance": "apo-transferrin (iron-free), SPR analyte", "values": [{"measurement": "KD (from kd,end/ka,end)", "setting": "[1]", "value": 1.3, "unit": "nM"}, {"measurement": "ka,end (association rate constant; kend,a in Table 1)", "setting": "[1]", "value": "4.4 ± 0.4 × 10^7 min^−1 M^−1"}, {"measurement": "kd,end (dissociation rate constant; kend,d in Table 1)", "setting": "[1]", "value": "0.000933 ± 0.0002", "unit": "s⁻¹"}, {"measurement": "KD (equilibrium SPR)", "setting": "[2]", "value": "<15", "unit": "nM"}]}]}
